# Laboratory results published in patent publication US20250163162A1.
# Molecular target: IL10 receptor (IL10R) (human) (UniProt Q13651)
# Assay: cell-based or functional assay
# Chain of IL10 receptor (IL10R) (human) (Q13651 22-578, chain 1 of 2): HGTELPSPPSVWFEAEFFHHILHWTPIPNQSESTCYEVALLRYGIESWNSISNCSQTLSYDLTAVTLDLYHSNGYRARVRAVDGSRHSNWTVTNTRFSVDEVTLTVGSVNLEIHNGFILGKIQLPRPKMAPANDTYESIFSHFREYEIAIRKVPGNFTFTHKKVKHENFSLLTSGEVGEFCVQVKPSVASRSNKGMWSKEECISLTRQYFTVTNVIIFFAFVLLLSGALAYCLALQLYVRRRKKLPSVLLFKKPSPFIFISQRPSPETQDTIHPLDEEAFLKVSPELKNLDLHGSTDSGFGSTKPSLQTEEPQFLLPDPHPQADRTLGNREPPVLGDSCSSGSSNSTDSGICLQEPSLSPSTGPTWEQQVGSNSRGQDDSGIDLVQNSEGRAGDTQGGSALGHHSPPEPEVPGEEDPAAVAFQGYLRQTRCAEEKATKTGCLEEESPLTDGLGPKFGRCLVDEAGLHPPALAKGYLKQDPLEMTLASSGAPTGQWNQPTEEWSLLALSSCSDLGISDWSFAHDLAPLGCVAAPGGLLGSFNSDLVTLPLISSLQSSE
# Chain of IL10 receptor (IL10R) (human) (Q08334 20-325, chain 2 of 2, further chain): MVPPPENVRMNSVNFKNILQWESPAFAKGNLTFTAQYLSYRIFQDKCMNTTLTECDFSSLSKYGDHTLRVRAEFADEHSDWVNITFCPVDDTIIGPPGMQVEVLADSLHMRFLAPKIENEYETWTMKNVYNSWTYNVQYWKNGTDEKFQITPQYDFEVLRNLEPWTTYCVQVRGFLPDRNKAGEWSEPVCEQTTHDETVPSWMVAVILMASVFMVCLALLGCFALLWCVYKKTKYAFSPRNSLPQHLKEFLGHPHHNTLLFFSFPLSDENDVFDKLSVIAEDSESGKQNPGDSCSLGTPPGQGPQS
substance,measurement,value
wild-type human IL10 (wt hIL10) (from UniProt P22301 19-178) (ligand),"pSTAT3 MFI, B cells, 0.0001 nM (unstimulated 1193.5)",1160 MFI
same,"pSTAT3 MFI, B cells, 0.001 nM (unstimulated 1193.5)",1140 MFI
same,"pSTAT3 MFI, B cells, 0.01 nM (unstimulated 1193.5)",1220 MFI
same,"pSTAT3 MFI, B cells, 0.1 nM (unstimulated 1193.5)",1780 MFI
same,"pSTAT3 MFI, B cells, 1 nM (unstimulated 1193.5)",3950 MFI
same,"pSTAT3 MFI, B cells, 10 nM (unstimulated 1193.5)",3930 MFI
same,"pSTAT3 MFI, B cells, 100 nM (unstimulated 1045)",2400 MFI
same,"pSTAT3 MFI, B cells, 100 nM (unstimulated 1193.5)",2620 MFI
same,"pSTAT3 MFI, CD4+ T cells, 100 nM (unstimulated 1778)",9660 MFI
same,"pSTAT3 MFI, CD4 T cells, 0.0001 nM (unstimulated 1887)",1970 MFI
same,"pSTAT3 MFI, CD4 T cells, 0.001 nM (unstimulated 1887)",1880 MFI
same,"pSTAT3 MFI, CD4 T cells, 0.01 nM (unstimulated 1887)",2220 MFI
same,"pSTAT3 MFI, CD4 T cells, 0.1 nM (unstimulated 1887)",5170 MFI
same,"pSTAT3 MFI, CD4 T cells, 1 nM (unstimulated 1887)",10700 MFI
same,"pSTAT3 MFI, CD4 T cells, 10 nM (unstimulated 1887)",10800 MFI
same,"pSTAT3 MFI, CD4 T cells, 100 nM (unstimulated 1887)",9560 MFI
same,"pSTAT3 MFI, CD8+ T cells, 100 nM (unstimulated 1288)",8810 MFI
same,"pSTAT3 MFI, CD8 T cells, 0.0001 nM (unstimulated 1446)",1700 MFI
same,"pSTAT3 MFI, CD8 T cells, 0.001 nM (unstimulated 1446)",1430 MFI
same,"pSTAT3 MFI, CD8 T cells, 0.01 nM (unstimulated 1446)",1720 MFI
same,"pSTAT3 MFI, CD8 T cells, 0.1 nM (unstimulated 1446)",4300 MFI
same,"pSTAT3 MFI, CD8 T cells, 1 nM (unstimulated 1446)",8890 MFI
same,"pSTAT3 MFI, CD8 T cells, 10 nM (unstimulated 1446)",9890 MFI
same,"pSTAT3 MFI, CD8 T cells, 100 nM (unstimulated 1446)",9010 MFI
same,"pSTAT3 MFI, Monocytes, 0.0001 nM (unstimulated 2116)",2050 MFI
same,"pSTAT3 MFI, Monocytes, 0.001 nM (unstimulated 2116)",2140 MFI
same,"pSTAT3 MFI, Monocytes, 0.01 nM (unstimulated 2116)",2840 MFI
same,"pSTAT3 MFI, Monocytes, 0.1 nM (unstimulated 2116)",9550 MFI
same,"pSTAT3 MFI, Monocytes, 1 nM (unstimulated 2116)",28900 MFI
same,"pSTAT3 MFI, Monocytes, 10 nM (unstimulated 2116)",30900 MFI
same,"pSTAT3 MFI, Monocytes, 100 nM (unstimulated 1787)",27100 MFI
same,"pSTAT3 MFI, Monocytes, 100 nM (unstimulated 2116)",26600 MFI
same,"pSTAT3 MFI, NK cells, 0.0001 nM (unstimulated 1315)",1310 MFI
same,"pSTAT3 MFI, NK cells, 0.001 nM (unstimulated 1315)",1270 MFI
same,"pSTAT3 MFI, NK cells, 0.01 nM (unstimulated 1315)",1380 MFI
same,"pSTAT3 MFI, NK cells, 0.1 nM (unstimulated 1315)",2280 MFI
same,"pSTAT3 MFI, NK cells, 1 nM (unstimulated 1315)",4620 MFI
same,"pSTAT3 MFI, NK cells, 10 nM (unstimulated 1315)",5700 MFI
same,"pSTAT3 MFI, NK cells, 100 nM (unstimulated 1149)",4380 MFI
same,"pSTAT3 MFI, NK cells, 100 nM (unstimulated 1315)",4790 MFI
